# According to US20170121397A1 (PROTHENA BIOSCIENCES, published 2017):
# Ends that are not written are not given here.
# T1: mouse C-terminal medin peptide (mouse, also: conjugated to OVA in the ELISA)
# T1 construct: also called mouse c-terminal peptide; mouse C-terminal peptide-OVA
# T1 peptide: CGGHIQYVA
# T2: full length human medin (50 aa) (human)
# T2 construct: Synthetic peptide (American Peptide, Cat # 366587 in the Western blot); Monomer and multimer/oligomer bands seen in Western blot; also called medin peptide; full-length human medin peptide
# T2 peptide: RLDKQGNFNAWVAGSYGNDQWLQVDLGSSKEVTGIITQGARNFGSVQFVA
# T3: human C-terminal medin peptide (human, also: conjugated to OVA in the ELISA)
# T3 construct: also called human c-terminal peptide; human C-terminal peptide-OVA
# T3 peptide: CGGSVQFVA
# T4: human lactadherin polypeptide (Sino Biological) (human, UniProt Q08431 24-387)
# T4 construct: Bought protein; also called MFG-E8; synthetic lactadherin polypeptide
# T4 sequence (looked up): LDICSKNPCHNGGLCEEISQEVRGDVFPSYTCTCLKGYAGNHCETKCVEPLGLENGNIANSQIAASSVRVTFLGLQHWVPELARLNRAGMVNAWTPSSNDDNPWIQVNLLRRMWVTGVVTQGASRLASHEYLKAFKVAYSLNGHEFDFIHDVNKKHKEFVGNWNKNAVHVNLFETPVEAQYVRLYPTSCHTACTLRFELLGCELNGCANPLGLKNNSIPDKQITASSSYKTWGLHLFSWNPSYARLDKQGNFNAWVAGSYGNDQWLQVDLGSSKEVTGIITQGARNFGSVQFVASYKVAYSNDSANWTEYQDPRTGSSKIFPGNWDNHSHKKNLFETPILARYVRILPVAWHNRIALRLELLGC
# Legend:
# [1] = molecular target: T1, mouse C-terminal medin peptide; experiment: direct ELISA, plate coated with mouse C-terminal peptide-OVA at 2.5 ug/mL, goat anti-mouse HRP, ABTS, OD 405 nm
# Procedure: (§1) To further characterize antibodies of interest, ELISA titration curves were generated to determine antibody binding to human lactadherin (FIG. 1A, Sino Biological In.), full-length human medin peptide (50 aa, FIGS. 1A and B) or to the human or mouse C-terminal peptides (see FIG. 1B). Plates were coated with full length human medin, human C-terminal peptide-OVA, mouse C-terminal peptide-OVA and lactadherin at 2.5 ug/mL, 50 uL/well and incubated for about 1 hour at room temperature. The plates were then blocked with 1% BSA/PBS at room temperature. After about 15 minutes, plates were emptied and antibodies of interest were then added to the plates and after a 1 hour incubation at room temperature, the plates were washed with wash buffer. The detection antibody, goat anti-mouse antibody conjugated to horseradish peroxidase (Jackson ImmunoResearch) diluted 1:2,000 in 0.5% BSA/PBS/TBS-T was added to plates and incubated for 1 hour at room temperature. Finally, the plates were washed and then incubated with ABTS substrate (Thermo Scientific) for 15 minutes at room temperature to visualize signal and read at 405 nm on a microplate reader.
# [2] = molecular target: T2, full length human medin (50 aa); experiment: Biacore SPR, antibody captured on anti-mouse chip, medin as analyte, global 1:1 fit
# Procedure: Anti-mouse antibody (GE Heathcare) was immobilized on a sensor chip […] (lacking dextran chains) via amine coupling following the instructions provided in the GE Healthcare anti-mouse kit. Anti-medin monoclonal antibodies of interest were then captured on the chip at a level that ensured a maximum binding of analyte at 30-50 RU. Various concentrations of analyte, full-length human medin (50 aa, FIGS. 1A and B) were passed over the captured ligand at 30 ul/min in running buffer (Hepes buffered saline+0.05% P-20, 1 mg/mL BSA) in either 2-fold or 3-fold dilutions, depending on the magnitude of the spanned concentration range. For each concentration, the reaction proceeded for a period of time needed for the higher analyte concentrations to reach equilibrium during association, as well as at least 10% of signal to decay during dissociation. At least one concentration (not the highest or lowest) was run in duplicate. […] The data were doubled referenced to both an irrelevant sensor not containing the medin antibodies and a 0 nM concentration of medin to account for the dissociation of antibodies from the anti-mouse sensor. The data was then analyzed with a global 1:1 fit using the Biacore software.
# [3] = molecular target: T3, human C-terminal medin peptide; experiment: direct ELISA, plate coated with human C-terminal peptide-OVA at 2.5 ug/mL, goat anti-mouse HRP, ABTS, OD 405 nm
# Procedure: as §1
# [4] = molecular target: T2, full length human medin (50 aa); experiment: direct ELISA, plate coated with full length human medin at 2.5 ug/mL, goat anti-mouse HRP, ABTS, OD 405 nm
# Procedure: as §1
# [5] = molecular target: T4, human lactadherin polypeptide (Sino …); experiment: direct ELISA, plate coated with human lactadherin at 2.5 ug/mL, goat anti-mouse HRP, ABTS, OD 405 nm
# Procedure: as §1
EC50 (read off the curve) [1] [µg/mL],Kd [2] [nM],koff [2] [s⁻¹],kon [2] [M⁻¹ s⁻¹],EC50 (read off the curve) [3] [µg/mL],EC50 (read off the curve) [4] [µg/mL],binding result [1],EC50 (read off the curve) [5] [µg/mL],binding result [3],Binder
~0.05,12.1,0.00712,590000,~0.07,~0.04,,,,"mouse monoclonal antibody 18G1 (antibody, V domains shown, Mouse hybridoma IgG raised against the human C-terminal medin peptide; also called m18G1; PRT18G1) VH: EVQLVESGGGLVKPGGSLKLSCAASGFTFSSYAMSWVRQTPEKRLEWVAGISSGDYYTYYPDTVKGRFTISRDNARNTLYLQMRSLRSEDTAMYYCVRGRGNTGPRVGYWGQGTSVTVSS VL: DIVMTQSQKFMSTSVGDRVSVTCKASQNVGTNVAWYQQKPGQSPKALIYSASYRYSGVPDRFTGSGSGTDFTLTISNVQSEDLAEYFCQQYNSFPLTFGAGTKLELK"
,1.04,0.000951,1.11e+06,,~0.1,no binding (tested: 10 ug/ml),~0.2,no binding (tested: 10 ug/ml),"mouse monoclonal antibody 6B3 (antibody, V domains shown, Mouse hybridoma IgG raised against full-length human medin; also called m6B3; PRT6B3) VH: QVTLKESGPGILQPSQTLSLTCSFSGFSLSTSDMGVGWIRQPSGKGLEWLAHIWWNDNKYYNIALKNRLTVSKDTSNNQVFLKIASVDTADTATYYCARLVGSWFAYWGQGTLVTVSA VL: DIQMTQTTSSLSASLGDRVTISCRASQDISNFLSWYHQKPDGTVKLLIYYTSRLHSGVPPRFSGSGSGTDYSLTISNLEQEDIATYFCQQGKTLPPTFGGGTKLEIK"
